We go through one molecule from patent US20080241166A1.

The assay concerns the target hen egg lysozyme (hen) (UniProt P00698). Put plainly: ELISA on coated HEL (3 mg/ml); detection via the myc tag with 9e10 and anti mouse IgG-HRP. A general note: An ELISA detects its analyte on a solid surface through an enzyme-linked reagent.

hen egg lysozyme (hen), sequence (P00698 19-147): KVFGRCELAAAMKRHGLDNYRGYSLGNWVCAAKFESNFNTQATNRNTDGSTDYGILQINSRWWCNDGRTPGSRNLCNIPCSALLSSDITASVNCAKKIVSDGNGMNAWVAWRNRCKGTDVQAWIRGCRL

B1: VHCκ chain expressed alone (TAR2-5-Cκ) (protein, not shown: small tags and cut ends)
chain: EVQLLESGGGLVQPGGSLRLSCAASGFTFDLYNMFWVRQAPGKGLEWVSFISQTGRLTWYADSVKGRFTISRDNSKNTLYLQMNSLRAEDTAVYYCAKTLEDFDYWGQGTLVTVSS
In turn, B1 returned an ELISA signal (background) of 0.069.
